Laboratory results as given in the DeepSol protein solubility set.

Experiment: soluble on expression in E. coli; label from the status in PepcDB or PDB records
In the case of “MGSDKIHHHHHHMKEYDKLSIRLVQILSKFNNGESLSAQELAQEFNVDTRTIQRDLNERLTFMPIKKENGRYVLESFALGKLSFKDIQNFATLSGIAELYPKLDQGFIVDLLSHRVNKVLMVKNEGFQKVDYELFKDLSVAILKHNVLNFFYKEKERQIKPYKLVNYKGIWYLLGDENDKLKHFNLDKISKLRTKNENFIPNEKLEEQIQNDPNIWLGESKEVILKLDKNAKEYFFRKEILSNYQIIDKDETSYTLSTQVSYEDEILHLVKQWIPYIKILAPIELKIRLEDILKSYLNNLSK”, the “soluble on expression in E. coli” value is reported as “not soluble”.
In the case of “QTLRALAERAARIEQDPAAGDYMSALRELPFIRELMAGRLPLQWAPARMVSDDPAKGLGKAPPAGLLTQQLRNILGEPRRTLDLVSPYFVPAEAGTQAFAALARGGAQVRVLTNALEATDVAVVHSGYAKRRKALLQAGVRLYEMRRSYAGPKPQGRGRFGSSGSSLHAKTFGVDGERVFIGSFNFDPRSANLNTELGFVIESPDMARHIAATFDQDIPAATYEVRLDDDGSLYWLE”, the “soluble on expression in E. coli” value is reported as “not soluble”.
With “MGSDKIHHHHHHMSKKIIDEVIDILEDKKYTYTMIEYPEHNRKSVDIVLNSKEPTLIRVSEDKITKEEISDLKKIAVSTLTASLVVTNEEEEDIVSVKADNVFAISPEGFKKVINGEKIFLYRTRGGIFIKIRNYILKHKREEMGYSIGDVAKFLGVSRKAIYDYEKGDSDVSLEVAEKLIDLFGDDIIGDVIWDSIKSKKEILEEGVAEFSPENFKAKLIYKLKESGLNALSLKLTAADLIVKDSDNNRYLVTIENKDYNKSMKKFYEAKKLASYTKSELVIIIRTSKMLKECEDLGYKTYEENDIHSLIDEIKGSNGRQG” the “soluble on expression in E. coli” value was “not soluble”.
With “MMKSIATLISVVLCSFSAWAQTITAAQDPWPPFVMENAQQKGLSVDIVTAAFATQGYTVEFTIMPWSRALNDVKEGKIDILPATWFTQERTAYLTYSDNYLTNQVKFIKKAGDNFEFAGLASLNGKKVGIVRGYGYGDEFMNDPSFFRPESTDLKQNLQKLQAGRIDLAVEDELVAKSIITEAGMNLADFAFTNQAISENPLHVTSGKANPRSEELVAAFNKGLAEIKANGTFDKLLADYGIK” the “soluble on expression in E. coli” value was “not soluble”.
In the case of “MRIIEQDPWLRPYESVIESRLKYARKRETDLTGGRSGGLSDFANGHLYYGLHQDGDSWVIREFAPEATAVYLIGELSRWRRLPQFRFAPVDEAGSWELRLSCRLLPHGSRYRLFFEWPGGEGERIPAWCNRVEQDPETYLFYAQVWVPDTPYEMKHPHPNR”, the “soluble on expression in E. coli” value is reported as “not soluble”.
In the case of “MAKNTLSFVCQNCGAAYNRWQGKCESCGEWNTLAEEDTSGSVPVSIRSKRKGRTFALESLAGKSPDAPRLSSGMTELDRVTGGGFVRGSVLLVGGDPGIGKSTLLTQATSLMARAGHRIVYISGEEAIAQVRLRAERLGLSDAPVQLAAETSVEDIVSTLSEGAVPRLIVIDSIQTMWTDTVESAPGTVTQVRASAQALIRFAKKTGAAIILVGHVTKDGQIAGPRVVEHMVDAVMSFEGEGSQQFRILRAVKNRFGPTDEIGVFEMTGLGLREVTNPSELFLSERDLGTPGTAVFAGIEGTRPVLVELQALVAPTSLGTPRRAVVGWDPSRLSMVLAVLEAHCGVKLSGHDVYLNVAGGLRIHEPAADLAAAAALVSSLVNAQLPTDAVYFGEISLSGVVRPVAQTPARLKEAAKLGFQRAVLPESARGEAGGDAGLSLNAVNSLTTLVAEIAARGSRRGESGGSAEKNATPARFRRGEGLEHHHHHH”, the “soluble on expression in E. coli” value is reported as “not soluble”.
For “MGSDKIHHHHHHLDGDTQISIEALTSLSQITAEEWDACACPEDGRPLDPFTTYRFLDALEQSGSVGPGSGWQPRYLVARMDDQVIACAPMYAKGHSQGEYIFDHNWAHAYENAGGAYYPKLQIAAPFTPATGRRFLTRPGHDATGISALIQGAVQIAADNDLSSLHVTFCTEDEAIAGERIGLMRRWSQQFHWVNDGYADFDGFLASLSSRKRKNIRKERARAQAFGGEIVSLTGAQIKAEHWDAFWHFYQDTGARKWGTPYLTRAFFDIVHETLTDDMLLCLAIREGQPVAGALNFIGADTLYGRYWGCVEDHPCLHFELCYYQAIDYAIANGLSRVEAGAQGAHKLARGYLPVATHSLHWVRDAGFAEAIGRYLEAEREAVDEEIEVLTGYGPFKRA”, the “soluble on expression in E. coli” value was “not soluble”.
In the case of “MGSDKIHHHHHHMINSGNGTDYESMRFDRRGQAEAFDAIGDRYDEAFPHKEGQVSVGEWLIGSLPPRSRVLDLGCGTGMPTARQLTDAGFDVVGVDLSGGMVELARAYVPGATFHQLDVADLRPGGSRDLGRFDAVAAFFSLLMLPRPEIPLALLTVRHLLVPGGLFALAMVEADVDDFSIPFVGHTIRVSGYLREDLHTVIETAGFEIVKEFSYTYAPSVADVPPEEQVFLCCRRRG”, the “soluble on expression in E. coli” value is reported as “not soluble”.
For “MNLTPGGNAPVPAQELRVRITSGGQVDASAFRLYADGKVQGDADMVFYGQPRNDDGTVSLVSEGQYSTFTVALNRLKPDVQKIAFTVTCDGGQTVSGLRNLSIDVEQGATGLVSGSVELSGRQEAALILGEFYRRNNDWKFRFVAQGFNGGLKPLAEHFGVNIADEPAPAAPTPPVVTPPPVETKISLSKVSLTKEKPAISLTKRDNFGEIRINLNWHRGSSKSGFAGMFGSKGIDLDLGAFVELQDGYKSVIQALGNAFGDYRDEPYVQLKGDDRTGDVSDGEWLHINGREWKHIREVLIYAFIYEGVPSWDKTDGVVTIHVPDQPPIETRLTEGENRRTLCAIARLVNENGAIKVERINQYFKGQDEMDRAFGWGFRWSAGSK”, the “soluble on expression in E. coli” value was “not soluble”.
For “RHAGVVTAVERHGESLLEVTCRLQGDWSHRAGQFAFLTCDRLEGAHPFTIASADRGCGEVRFSIKALGDYTRRLQDNLEVGARVEVEGPYGCFDFRRGLAGRQVWVAAGIGVTPFIAWLESLQAAPESAPSVELHYCVRNSQEALFAGRLRELCEH”, the “soluble on expression in E. coli” value was “not soluble”.
With “KVITRGEATRLINKEDAVVVDLRQRDDFRKGHIAGAINLLPSDIKANNVGELEKHKSQPIIVVDGSGMQAQEPASALNKAGFEKVFVLKEGIAGWSGENLPLVRG” the “soluble on expression in E. coli” value was “soluble”.
For “MSLEYLLQAAGIPRSTFFYHQKRLSKPDKHAELKDAIRASFERNKHRYGYRRVLLDLRNQGWVVNHKLVYKLMCEMGLRAKIRQRRPYVSYTGTISHIADNKLDRKFTPDQPNTVFVSDVTEFRVAGRKVYLSPVMDLFDRSIVAHTVATSPSTALTTDSLSKAIAACEPEPGWMIHTDQGFQYQHASWRDLIGDNGGVQSMSRKANCYDNAVMENFFGHLKTEMYHGEVFDTVAEFNQVIDEYIQWYNTERIQQRLKGLTPMQYRNQTLEALTAEGHHHHHH”, the “soluble on expression in E. coli” value was “not soluble”.
With “MAHHHHHHMREARERARIAEAEADSAMEAADRAILEELLRKDEEERRAAAEREAAARRAAEERAAAERLKAEDEARQAAEAARQRALEEERQRQRESAKQAAKSQLHDEPSTDVATSETVQISVRCPSGKHYDRRFLRSDLVDQLTFFVLTLDEVADATDASTVRFVTGFPPAPLVWREGETRFGDVKSLCPRAVVLLRRL” the “soluble on expression in E. coli” value was “not soluble”.
With “MPDYLVVLQAAWIVRKARSVEDAMNIAVAEAGKKLNPDLDFVKIDVGDTACPKCNSPLKAVFMVAGVALVGLIFEMKVFNAKSPEHAAKIAKYEIGKRMPRIPLEVIEVAEIE” the “soluble on expression in E. coli” value was “not soluble”.
With “YIDVKRMMYTLIVSFVFSRVVDSVLDGAYAAKGILIVSNHSEEIGQSLMASLERGVTYLNGEGAYSQVEKRVLYTVVSPREIMEVKRIANEIDEKAFVSIINVHEAIGEGFTYAKPSKQRRFKLKQ” the “soluble on expression in E. coli” value was “not soluble”.
In the case of “IIPISNFFQMVDALAEVSSTRIRLQEEILAGSWESLNTGRADLLVCPSLDTLPQEVKAEKIGKMSMIWVAATEHYVHKRSGEFDDSAREKYRIIAIADTAREQPALSINIIQKQPRLTVTNFTAKVEALTAGLGIGTLPRQIALPLIEKGVLKQIEGTEEQPMDIILAWRRNTMGEAKSWCIQYLKKNWKLK”, the “soluble on expression in E. coli” value is reported as “not soluble”.
With “MRDMIIVVPIGEVPSDVLSFLSENIESFYMKFGIGVKIIGSLPISAFSHAYDFYRNQYLARHFLPALSIIRRDYKALAVMGVTEVDLYESGLNFIFGIAHPGFGVALISLHRLYPEFYGEPPDRKLLKERALKEAMHELGHVFGLEHCPNPKCVMHFSNSIIDTDIKSWMYCKNCLRKLEERLGRGYVRGRTLEHHHHHH” the “soluble on expression in E. coli” value was “not soluble”.
In the case of “MTEKQFKLTVQDNTNIEVKVNFTDVDSKGIIHIFHGMAEHMERYDKLAHALSKHGFDVIRHNHRGHGINIDESTRGHYDDMKRVIGDAFEVAQTVRGNVDKPYIIIGHSMGSVIARLFVETYPQYVDGLILSGTGMYSLWKGLPTVKVLQLITKIYGAEKRVEWVNQLVSNSFNKKIRPLRTQSDWISSNPIEVDNFIKDPYSGFNVSNQLLYQTAYYMLHTSQLKNMKMLNHAMPILLVSGYDDPLGDYGKGILKLANIYRKAGIKNVKVNLYHHKRHEVLFEKDHDKIWEDLFKWLNQFYKK”, the “soluble on expression in E. coli” value is reported as “not soluble”.
For “MKIFVLSIRPEEKAQRTGGACFDILNVPVTRLEPIPVDYTDLIRSGVDCVAFTSSYGVRLFFKNAPVKNFRYFGIGKSTCEEVRKYGYDCEYPEKMDSEGLADMIISHCSGRKVALIRSANANEIVNEKIMGHVDFIDLRNYRAVNTNVDLTPYMAKEECMGIIVTSSMEAKIAMPAIKATGKPVYSIGSVTTKTLEEAGIHPAISGNSDFVDLVEKIKKYLCLV”, the “soluble on expression in E. coli” value was “not soluble”.
For “MGSDKIHHHHHHMNIINFIKNYLSTPMSSLTFAPAHQLARMIRNREVSAVEVLNAYLAQIAKHNSKLNAICTLDEENAYLRARLADEALARGENWGALHGVPITIKDIFETAGLLTTAGYIPLKDYVPQQDATVVARLRTAGAVILGKTNMAELAGDYQSTNSLFPQVNNPWNLDYTAGGSSGGSAAAVAAGLSSLDLGNDIAGSVRQPAHFCGVYGLKPTDRRISTAGQIPEVPGMPVCLRQMMTVGCFARSLEDIRLCFSLIAGSDLRRPDVPPIPLDNPSGKSLQNLKIAWLDEWVEVPVASEIQVAMTAIAHTLTQAGVQIEPWLPKNFDLSKTLNLYGRMAAYINIYAQPVDRYNLHRSWQQIFRTATQGEKELRKLGDFSRLLPDLLNPRLKGYFEVLTERDCFTAQMDEALEPWDAWLTPVAATPAFTHRPAWSAIEIDGRPYPHAVANGAYTMPFNLSGHPAVVIPIGHTQDGLPIGMQVVGKRWREMELLAIAQELDKVINAFRSPFEII”, the “soluble on expression in E. coli” value was “not soluble”.
In the case of “MRRSLVVAVMAIMPMVGLANQNSRPDIQVNVPPEVFSTRGQSSQPCIQCCVYQDQNYSEGAVIKVEGVVLQCQRDEKTISTNPLVWRRVKPLEHHHHHH”, the “soluble on expression in E. coli” value is reported as “not soluble”.
With “MKYLAAYLLLVQGGNAAPSAADIKAVVESVGAEVDEARINELLSSLEGKGSLEEIIAEGQKKFATVPTGGASSAAAGAAGAAAGGDAAEEEKEEEAKEESDDDMGFGLFD” the “soluble on expression in E. coli” value was “soluble”.
For “MLSIIIPVYNEKGNILELTSRIKSALKNNEYEIVFVDDSTDETPKIIESLALKYNNIRLKHRKGKKGLSSAVIDGFKLARGDVLSVMDGDLQHPPEMLESMLFQMKKDTDIVICSRFVLGGKEEGLNIFRKFASFIARLIGKIFLKPLRKISDPTAGFFMLKRKVIKNRDLRAIGWKILIEILVMGDYKRVVELPYSFKRRKHEKSKFTISVQGQYLKQIVSLFIRSKKYNIKLEHHHHHH”, the “soluble on expression in E. coli” value was “soluble”.
For “MAHHHHHHMVNEYHEAPRPAITLPRPGTKFRASAVEPILKKVCQTLVGDRAYAHEDVQPLIKEICSEIQQRVVRLGYERYKFVTHATVTEAVNQGIRIASRGLWDPVTDGYASYTFSTETMHVNVVLYALYWE”, the “soluble on expression in E. coli” value was “not soluble”.
With “MSLGPVGMSGGMDINSMVSKIVDAERVPKQQRIDNDRTTINASISAYGRLRESLDTMKNLMANFRQEKAFAVRTVETTDDNIVSATATTDAIAGKYAIDVLQLAQSHK” the “soluble on expression in E. coli” value was “not soluble”.
